# From the RNAGym collection of RNA variant scans (doi:10.7554/elife.80360)
# B1: Twister Ribozyme (parent)
# chain: AACACUGCCAAUGCCGGUCCCAAGCCCGGAUAAAAGUGGAGGGGGCGG
# Variants of: B1
# Experiment: self-cleavage, relative activity (ratio to wild type); higher = more cleavage; co-transcriptional
row,Variant,self-cleavage
1,C8A A32C,0.42
2,C8A A34C,0.189
3,G7U G41C,0.111
4,C8A C25U,0.125
5,C8A C25G,0.0894
6,U6G G39U,0.105
7,U6G G39C,0.124
8,U6G A10U,0.204
9,U6C G44A,0.63
10,U6C G44C,0.513
11,U6C G39A,0.273
12,U6C G39U,0.114
13,U6C G39C,0.136
14,G7A C9U,0.0809
15,G7C A32C,0.0784
16,G7C A32G,0.105
17,G7U G38C,0.0818
18,G7U G38U,0.103
19,U6G C21A,0.0289
20,U6G C21U,0.0405
21,C8A A33G,0.228

row,Variant,self-cleavage
1,C8A A33U,0.28
2,G7C G42C,0.0454
3,G7C G42A,0.062
4,C8A A30G,0.567
5,G7C G47C,0.122
6,U6C G48A,0.514
7,C8G A32C,0.323
8,C8G A32G,0.275
9,U6G G29U,0.173
10,U6C G47A,0.579
11,U6C G47C,0.209
12,U6C G47U,0.575
13,G7C G41C,0.0623
14,G7C G41U,0.0511
15,G7U A35G,0.0839
16,G7U A35U,0.109
17,G7U A35C,0.0996
18,G7C G38C,0.0787
19,G7C G38U,0.071
20,G7C G38A,0.0835
21,U6G A32U,0.405

row,Variant,self-cleavage
1,G7U G43A,0.0755
2,G7U G43C,0.0634
3,G7C A30C,0.0728
4,G7C A30U,0.0697
5,G7C A35C,0.064
6,G7C A35U,0.0701
7,G7A U12C,0.455
8,G7A U12G,0.381
9,G7A C15G,0.0625
10,C8G A22G,0.0585
11,C8G A22U,0.157
12,G7U U12G,0.208
13,G7U U12C,0.0693
14,G7U U12A,0.0775
15,G7A A34U,0.154
16,U6G C26G,0.0499
17,G7C U18A,0.0787
18,G7A C19A,0.0667
19,C8A G41A,0.175
20,U6G A40G,0.137
21,G7U C14U,0.0997

row,Variant,self-cleavage
1,G7A G38A,0.0994
2,G7A G38C,0.348
3,C8A U37C,0.144
4,C8A U37G,0.3
5,G7U C8G,0.114
6,U6C U37C,0.0955
7,U6C U37A,0.131
8,G7A C20U,0.116
9,G7U G16A,0.0674
10,G7U G16U,0.0559
11,G7C C14U,0.0373
12,U6G A35U,0.549
13,U6G A35C,0.678
14,U6G A30G,0.322
15,U6G A30U,0.687
16,G7U U31G,0.131
17,G7U U31A,0.133
18,G7C A40U,0.0764
19,G7C A40C,0.0472
20,G7A C21A,0.059
21,G7A C21U,0.103
